Assays:
Assay in all cases: crystal structure; VP1 pentamers (His-tag cleaved) at 3-4 mg/mL, hanging drop vapor diffusion at 20°C, 10-18% PEG 3.350, 0.1 M HEPES pH 7.5, 0.1-0.3 M LiCl; self-association of VP1 into a pentamer
[1] = biological target: BK polyomavirus VP1 mutant E73A (VP1 pentamer, residues 30-300) (BK polyomavirus) (UniProt P03088)
[2] = biological target: BK polyomavirus VP1 mutant VQQ, A72V E73Q E82Q (VP1 pentamer, residues 30-300) (BK polyomavirus) (UniProt P03088)
[3] = biological target: BK polyomavirus VP1 mutant E73Q (VP1 pentamer, residues 30-300) (BK polyomavirus) (UniProt P03088)
[4] = biological target: BK polyomavirus VP1 mutant N-Q, K69N E82Q (VP1 pentamer, residues 30-300) (BK polyomavirus) (UniProt P03088)

## BK polyomavirus VP1 mutant E73A (VP1 pentamer, residues 30-300) (from UniProt P03088 30-300) (domain or fragment)
[1]
  stoichiometry N: 5

## BK polyomavirus VP1 mutant VQQ, A72V E73Q E82Q (VP1 pentamer, residues 30-300) (from UniProt P03088 30-300) (domain or fragment)
[2]
  stoichiometry N: 5

## BK polyomavirus VP1 mutant E73Q (VP1 pentamer, residues 30-300) (from UniProt P03088 30-300) (domain or fragment)
[3]
  stoichiometry N: 5

## BK polyomavirus VP1 mutant N-Q, K69N E82Q (VP1 pentamer, residues 30-300) (from UniProt P03088 30-300) (domain or fragment)
[4]
  stoichiometry N: 5
